The record followed here is the supplement of paper PMC10567573.

The series in a line: protein stability index of a GFP-peptide fusion (GPS, HEK-293T) (PSI 1-6); higher = more stable.
Setting [1] is: treatment: DMSO, c terminus: a fixed tail appended.
Setting [2] is: treatment: MLN4924 1 uM, 8 h, c terminus: a fixed tail appended.

± gives the standard deviation.
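Note: 24-mer peptide tiles fused after GFP, lentivirally expressed, FACS-sorted into six equal bins by GFP/DsRed ratio, decoded by Illumina sequencing, PSI is the read-weighted mean bin number.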

For CLMIGRDLVRLLQNVARIPEFELL [INTS3], the protein stability index reads like this: under setting [1], 2.49 ± 0.17; under setting [2], 2.24 ± 0.25. The matching figures for CLTAGPEVAAQLPAVRQLLPCARV [ZSWIM9]: 2.94 ± 0.21 and 2.97 ± 0.41. The matching figures for CPAELRPQVPQPPSPAAVPRPPSN [TRAF3IP2]: 5.18 ± 0.13 and 5.01 ± 0.28. The like results for CRTYIIHYYLMDDTVEIREVHERN [EFHC1] were, in that order, 2.55 ± 0.38 and 2.39 ± 0.29.

Sequence CTEKFKTSRDRKDHMVRMHLYPAD [ZNF511] displayed a protein stability index under setting [1] of 3.49 ± 0.38 and a protein stability index under setting [2] of 3.48 ± 0.25. On to CVARPGTPSLLRFALASLLQSAPD [ZSWIM9], for which the protein stability index turned out to be 2.19 ± 0.18 under setting [1] and 2.24 ± 0.31 under setting [2]. The matching figures for CYVGATVLRGRLYAIAGYDGNSLL [KLHL12]: 3.2 ± 0.34 and 2.57 ± 0.68. On to DAAEEEKYDMEVRVQKTSKELEDM [TNNI2], for which the protein stability index amounted to 5.45 ± 0.24 under setting [1] and 5.46 ± 0.17 under setting [2]. The like results for DAAHPTNVQRLAEPSQMLKHAVVN [CTNNB1] were, in that order, 4.62 ± 0.19 and 4.62 ± 0.15. The like results for DAHFCAVCSDYASGYHYGVWSCEG [ESR2] were, in that order, 2.2 ± 0.45 and 2.49 ± 0.42.

For the sequence DATLSLKQTILDKEEKQRRNVAKN [TTC32], the protein stability index is, setting by setting: under setting [1], 4.99 ± 0.28; under setting [2], 4.91 ± 0.19.

On to DCLKACQEQIEAVLLNSLQQYRQD [CCND2], for which the protein stability index is, setting by setting: under setting [1], 2.32 ± 0.35; under setting [2], 2.33 ± 0.28. The like results for DCLQGIRKGLQHGFFDFETFDVDE [CDC14A] were, in that order, 3.33 ± 0.3 and 3.62 ± 0.61. The like results for DDLMGILCKSVLEIERAIKQTQCP [FEM1C] were, in that order, 2.07 ± 0.22 and 2.46 ± 0.29. The like results for DDSDTQQVVVLVRDNGDPSLSSTA [PCDHGC5] were, in that order, 4.76 ± 0.16 and 4.83 ± 0.22. In turn, DEASAATPPSSRRVWSPPRVHKVE [ZBTB22] had a protein stability index under setting [1] of 5 ± 0.073 and a protein stability index under setting [2] of 4.99 ± 0.15. The like results for DEISDHAKVLTLSDDLERTIEERV [EIF5] were, in that order, 5.16 ± 0.28 and 5.44 ± 0.11. The like results for DELIPEYLNFIRGVVDSEDLPLNI [HSP90AB1] were, in that order, 3.22 ± 0.38 and 3.3 ± 0.47. As for DERTHRSDRPFKCNQCGKCFIQSS [ZNF8], the protein stability index reads like this: under setting [1], 2.98 ± 0.42; under setting [2], 3.25 ± 0.47. The like results for DESGGPDNEDYPLFRELWRYHFAT [KLHDC10] were, in that order, 2.95 ± 0.29 and 2.99 ± 0.27. The matching figures for DFQPREEAMLYHNQTAELRELLEF [P3H4]: 3.96 ± 0.28 and 4.01 ± 0.16. Regarding DFTLSKTNMARIREIMEKFGKQPV [CPXM2], the protein stability index under setting [1] is 2.71 ± 0.088 and the protein stability index under setting [2] stood at 2.62 ± 0.33.

As to DGPGGNLAHAFQPGPGIGGDAHFD [MMP1], the protein stability index runs as follows: under setting [1], 4.95 ± 0.3; under setting [2], 4.9 ± 0.14. The matching figures for DHSSRELSKILAKLERLKQQNEDL [FUT8]: 3.89 ± 0.12 and 4.03 ± 0.16. The matching figures for DHWNNEKERILLVTDKTLLICKYD [TPRG1]: 2.18 ± 0.32 and 2.47 ± 0.15.

For the sequence DIDLSLYIPRDVDETGITVASLER [ZC3H15], the protein stability index runs as follows: under setting [1], 3.19 ± 0.28; under setting [2], 3.5 ± 0.23. For the sequence DIETACKLLNITADPMDWSPSNVQ [SPDEF], the protein stability index by setting is: under setting [1], 2.75 ± 0.42; under setting [2], 2.77 ± 0.17. The like results for DIGAVYSHRPNQHNTVKLGAFQAQ [PRIM1] were, in that order, 3.11 ± 0.41 and 3.19 ± 0.45.

The sequence DIHITARIESDLTLESLSDEEIHP [DRICH1] gave a protein stability index under setting [1] of 4.85 ± 0.2 and a protein stability index under setting [2] of 4.91 ± 0.19. The matching figures for DIHVGLRGVPLLEWETEVEMDKLR [CLCN6]: 3.98 ± 0.23 and 3.96 ± 0.41.

Take DIISTVEFNHTGELLATGDKGGRV [PPP2R2B]: the protein stability index stood at 3.16 ± 0.43 under setting [1] and 3.25 ± 0.5 under setting [2].

For DILPIHPPSGNSDLDPDAQNPML [BTBD10], the protein stability index by setting is: (treatment: DMSO, c terminus: native) 5.46 ± 0.17; (treatment: MLN4924 1 uM, 8 h, c terminus: native) 5.21 ± 0.22. In turn, DKTDISSGRARQQDEEMLELPAPA [MLH1] returned a protein stability index under setting [1] of 5.42 ± 0.36.

As for DKVIELHKSHRGMTPAEAEMHFLE [EPB41L3], the protein stability index by setting is: under setting [1], 4.51 ± 0.22; under setting [2], 4.38 ± 0.14. For the sequence DLFVENMPGFPDNIRPSSSGGYWV [APMAP], the protein stability index was found to be 2.32 ± 0.26 under setting [1] and 2.49 ± 0.34 under setting [2]. The like results for DLGGSIYANLALSGLIEIQSYPLC [SLC22A15] were, in that order, 3.02 ± 0.72 and 2.63 ± 0.76. The matching figures for DLGNACWVHKHFTEDIQTRQYRSI [SRPK2]: 2.61 ± 0.23 and 2.72 ± 0.11.

Consider DLPPPPADPVLDLPLPPPPPEPLS [APBB1IP], for which the protein stability index worked out at 5.39 ± 0.3 under setting [1] and 5.33 ± 0.18 under setting [2]. The like results for DLSMDGLFGTIAYLPPERIREKSR [RIPK4] were, in that order, 3.58 ± 0.27 and 3.66 ± 0.34. The matching figures for DLSPLLGFWQLPPPATQNTFGNST [PLAGL1]: 2.36 ± 0.43 and 2.5 ± 0.23. The like results for DNLLAAADKYALERLKVMCEEALC [SPOPL] were, in that order, 2.75 ± 0.32 and 2.78 ± 0.15. For the sequence DPCVISQEIMEKYNIKLKWTNQQK [CFHR2], the protein stability index by setting is: under setting [1], 3.19 ± 0.22; under setting [2], 2.92 ± 0.22. Take DPMLDFYSDKNAKLTKESYPVVVA [TENT5D]: the protein stability index stood at 3.77 ± 0.26 under setting [1] and 3.85 ± 0.23 under setting [2]. The matching figures for DQENFQGKRMEFTSSCPNVSERSF [CRYBA1]: 4.49 ± 0.12 and 4.46 ± 0.24. DQFSALGLDPCLLEDELDKSVQGT [SLC6A17]: the protein stability index by setting is: under setting [1], 5.18 ± 0.14; under setting [2], 5.19 ± 0.14. The matching figures for DQNTVVTRQLSEENANLQEYVEKE [MTUS2]: 5.41 ± 0.25 and 5.51 ± 0.21. The like results for DQTGKEVADRWYSEIKNYNFQQPG [GLIPR2] were, in that order, 4.15 ± 0.34 and 3.88 ± 0.31. The matching figures for DRAVNDYPSLYYPEMYILKGGYKE [CDC25B]: 2.67 ± 0.25 and 2.85 ± 0.46. Take DRKLHSRPRKLYKHSSTSSRIAKG [BTBD10]: the protein stability index reads like this: under setting [1], 3.81 ± 0.15; under setting [2], 3.79 ± 0.25. As for DRLVVTECQLTHSHPACPLEFAYY [ZSWIM9], the protein stability index is, setting by setting: under setting [1], 2.53 ± 0.31; under setting [2], 2.53 ± 0.32. The matching figures for DRVLRAMLKAEETCAPSVSYFKCV [CCND1]: 2.29 ± 0.25 and 2.35 ± 0.4. The matching figures for DSDVPEQRDSKCKVKWTHEEDEQL [MYBL2]: 5.44 ± 0.32 and 4.94 ± 0.76.

As for DSVLKGMQAASSKMVSAEISENRK [SDE2], the protein stability index under setting [1] was 4.31 ± 0.23 and the protein stability index under setting [2] turned out to be 4.68 ± 0.33.
